From US20180355053A1 (Stanford University, published 2018)

Key:
[1] = target: T1, human CD47 tagged with mouse Fc (human, UniProt Q08722 19-139, limits assumed); assay: ELISA on immobilized recombinant CD47
T1 construct: also called recombinant CD47 antigen
Procedure: FIG. 7: SIRPα-rituximab bispecific reagents bind to CD47 with reduced affinity relative to anti-CD47 and other bispecific antibody formats. Binding of the indicated antibodies to the recombinant CD47 antigen was measured by ELISA over a range of concentrations. Immobilized human CD47 tagged with mouse Fc was used to capture the indicated antibodies prior to detection with HRP-conjugated antibody directed against the human kappa light chain. Data are representative of three experiments performed in triplicate.

human CD20 [2] = target: T2, human CD20 (human, UniProt P11836 1-297); assay: flow cytometry on CD20+CD47- YB2/0 cells
T2 construct: whole, on cells; also called MS4A1
T2 sequence (looked up): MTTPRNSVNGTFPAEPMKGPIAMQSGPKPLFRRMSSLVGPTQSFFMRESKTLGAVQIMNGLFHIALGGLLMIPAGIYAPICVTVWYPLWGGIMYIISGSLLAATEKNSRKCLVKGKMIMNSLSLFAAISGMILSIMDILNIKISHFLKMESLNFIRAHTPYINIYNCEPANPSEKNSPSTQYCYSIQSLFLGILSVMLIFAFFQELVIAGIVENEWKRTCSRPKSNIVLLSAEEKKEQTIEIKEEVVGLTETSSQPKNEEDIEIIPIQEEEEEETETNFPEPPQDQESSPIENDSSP
From the text: FIG. 3A-3B: SIRPα-rituximab bispecific reagents bind to CD20 on the cell surface. The indicated antibodies were used to stain rat YB2/0 cells engineered to express human CD20, but not human CD47 (CD20+CD47−) prior to detection with anti-human secondary antibody by flow cytometry. 2B8=anti-CD20, B6H12=anti-CD47.

human CD47 = target: T3, human CD47 (human, UniProt Q08722 19-323); assay: flow cytometry on CD20-CD47+ YB2/0 cells
T3 construct: whole, on cells
From the text: FIG. 5A-5B: SIRPα-rituximab bispecific reagents bind to CD47 on the cell surface with reduced affinity relative to anti-CD47. The indicated antibodies were used to stain rat YB2/0 cells engineered to express human CD47, but not human CD20 (CD20−CD47+) prior to detection with fluorescently tagged anti-human secondary antibody by flow cytometry. 2B8=anti-CD20, B6H12=anti-CD47.

human CD20 [3] = target: T2, human CD20; assay: flow cytometry competition with 10 µg/ml DyLight 488 anti-CD20 on CD20+CD47- YB2/0 cells
From the text: FIG. 4: SIRPα-rituximab bispecific reagents bind to CD20 with similar affinity as parental antibody.

Measured: binding result

B1: CD20-2GL-SIRPα (bispecific antibody, human IgG1, kappa)
heavy: not shown
light: QIVLSQSPAILSASPGEKVTMTCRASSSVSYIHWFQQKPGSSPKPWIYATSNLASGVPVRFSGSGSGTSYSLTISRVEAEDAATYYCQQWTSNPPTFGGGTKLEIKRTVAAPSVFIFPPSDEQLKSGTASVVCLLNNFYPREAKVQWKVDNALQSGNSQESVTEQDSKDSTYSLSSTLTLSKADYEKHKVYACEVTHQGLSSPVTKSFNRGEC
notes: Wild type human SIRPα N-terminal Ig fold fused to the C terminus of the rituximab heavy chain through (GGGGS)2; also called CD20-2GL-SIRPα HC; SIRPabody
binds: [1] | human CD20 [2] | human CD47

B2: SIRPα-CD20 (bispecific antibody, human IgG1, kappa)
heavy: not shown
light: QIVLSQSPAILSASPGEKVTMTCRASSSVSYIHWFQQKPGSSPKPWIYATSNLASGVPVRFSGSGSGTSYSLTISRVEAEDAATYYCQQWTSNPPTFGGGTKLEIKRTVAAPSVFIFPPSDEQLKSGTASVVCLLNNFYPREAKVQWKVDNALQSGNSQESVTEQDSKDSTYSLSSTLTLSKADYEKHKVYACEVTHQGLSSPVTKSFNRGEC
notes: also called SIRPabody; SIRPα-rituximab bispecific reagent
binds: [1] | human CD47 | human CD20 [3]

B3: CD20-4GL-SIRPα (bispecific antibody, human IgG1, kappa)
heavy: not shown
light: QIVLSQSPAILSASPGEKVTMTCRASSSVSYIHWFQQKPGSSPKPWIYATSNLASGVPVRFSGSGSGTSYSLTISRVEAEDAATYYCQQWTSNPPTFGGGTKLEIKRTVAAPSVFIFPPSDEQLKSGTASVVCLLNNFYPREAKVQWKVDNALQSGNSQESVTEQDSKDSTYSLSSTLTLSKADYEKHKVYACEVTHQGLSSPVTKSFNRGEC
notes: Wild type human SIRPα N-terminal Ig fold fused to the C terminus of the rituximab heavy chain through (GGGGS)4; also called SIRPabody; SIRPα-rituximab bispecific reagent
binds: [1] | human CD20 [2] | human CD47
